Consider nine molecules from article PMC4520604, “Affinity Maturation of Monoclonal Antibody 1E11 by Targeted Randomization in CDR3 Regions Optimizes Therapeutic Antibody Targeting of HER2-Positive Gastric Cancer” (PLoS ONE, 2015).

Residue numbers refer to the chain shown, from its start. Names and notes keep the numbering of the source.

Common to all, as to conditions: both partners purified
In experiment [1] the target is T1, HER2-ECD-His protein (Homo sapiens, UniProt P04626).
T1 construct: human epidermal growth factor receptor 2 (HER2), extracellular region (ECD); The SPR methods name HER2-ECD-His; The ELISA legends say only 'HER2-ECD protein'; also called HER2-ECD protein; extracellular region (ECD) of HER2; source: Freestyle 293 system, secreted, purified (Ni-NTA)
Put plainly: SPR; affinity: antibody captured at about 50 RU by goat anti-human IgG (γ) on CM5; HER2-ECD-His injected at 0 to 640 nM; fit to 1:1 (Langmuir) model.

Experiment [2] concerns the target T1, HER2-ECD-His protein. Put plainly: SPR; k off analysis of Fab: HER2-ECD-His immobilised on CM5 by amine coupling at about 2,000 RU; Fab injected at 2 μg/mL, 50 μL/minute.
Experiment [3] has as its target T1, HER2-ECD-His protein. Put plainly: SPR; k off analysis of IgG: antibody captured at 1 μg/mL by goat anti-human IgG (γ) immobilised on CM5; HER2-ECD-His injected at 160 nM.
The target of experiment [4] is T1, HER2-ECD-His protein. Put plainly: SPR; affinity: antibody captured at about 50 RU by goat anti-human IgG (γ) on CM5; HER2-ECD-His injected at 0 to 640 nM; fit to 1:1 (Langmuir) model. The source holds these as a separate data set.

B1: chimeric 1E11 (antibody, V domains shown)
VH: EVKLVESGGGLVQPGGSLKLSCAASGFTFSSYTMSWVRQTPEKRLEWVAYISNGGGSTYYPDTVKGRFTISRDNAKNTLYLQMSSLKSEDTAMYYCARHLGGTASFDYWGQGTTVTVSS
VL: DIQMTQSPASQSASLGESVTITCLASQTIGTWLAWYQQKPGKSPQLLIYVATSLADGVPSRFSGSGSGTKFSFKISSLQAEDFVSYYCQQLYSTPWTFGGGTKLELK
notes: VH of murine 1E11; VL of murine 1E11; Chimeric IgG; also called ch1E11; parental ch1E11; source: Freestyle 293 system, purified (protein-A)
In the experiment with HER2-ECD-His protein [1], B1 gave a dissociation constant Kd of 23 nM.

B2: hz1E11 Fab, T99HA mutant (Fab, V domains shown)
VH: EVQLVESGGGLVQPGGSLRLSCAASGFTFSSYTMSWVRQAPGKGLEWVAYISNGGGSTYYPDTVKGRFTISRDNAKNSLYLQMNSLRAEDTAVYYCARHLGGAASFDYWGQGTLVTVSS
VL: DIQMTQSPSSLSASVGDRVTITCLASQTIGTWLAWYQQKPGKAPKLLIYVATSLADGVPSRFSGSGSGTDFTLTISSLQPEDFATYYCQQLYSTPWTFGQGTKVEIK
notes: as the VH of m4 (hz1E11); numbers count on: Kabat; as the VL of m4 (hz1E11); Fab in the vector pComb3X; source: E. coli DH5α, periplasmic extract, purified (IMAC)
Consider B2, for which, in the experiment with HER2-ECD-His protein [2], the “fold increase of k off (against the parental Fab)” value is 32 fold.

B3: L-1A12 + H-2A7 (IgG) (antibody, V domains shown)
VH: B2 VH with H99N, L100F, A103T
VL: B2 VL with L91N, Y92A, S93Y, T94A
notes: as the VH of m4 (hz1E11); numbers count on: Kabat; as the VL of m4 (hz1E11); IgG; source: Freestyle 293 system, purified (protein-A)
B3: the off-rate constant (koff) in the experiment with HER2-ECD-His protein [3] turned out to be 2.59e-05 s⁻¹.

B4: hz1E11 Fab, G97HA mutant (Fab, V domains shown)
VH: B2 VH with G101A, A103T
VL: B2 VL
notes: as the VH of m4 (hz1E11); numbers count on: Kabat; as the VL of m4 (hz1E11); Fab in the vector pComb3X; also called G97A; source: E. coli DH5α, periplasmic extract, purified (IMAC)
As to B4, the “fold increase of k off (against the parental Fab)” value with HER2-ECD-His protein [2] was determined as 17 fold.

B5: clone 1F11 (IgG) (antibody, V domains shown)
VH: B2 VH with A103T
VL: B2 VL with L91T, Y92A, S93F, T94S
notes: as the VH of m4 (hz1E11); CDR-H3 HLGGTASFDY; as the VL of m4 (hz1E11); numbers count on: Kabat; IgG; also called L-1F11; source: Freestyle 293 system, purified (protein-A)
As to B5, in the experiment with HER2-ECD-His protein [4], the Kd stood at 1.4 nM, the koff came to 0.00012 s⁻¹ and the kon amounted to 90000 M⁻¹ s⁻¹. In the experiment with HER2-ECD-His protein [3], the dissociation rate constant (koff) was determined as 5.89e-05 s⁻¹.

B6: L-1F11 + H-2A7 (IgG) (antibody, V domains shown)
VH: B2 VH with H99N, L100F, A103T
VL: B2 VL with L91T, Y92A, S93F, T94S
notes: as for B3
Take B6: the off-rate constant (koff) with HER2-ECD-His protein [3] stood at 4.5e-05 s⁻¹.

B7: L-1F11 + H-1B12 (IgG) (antibody, V domains shown)
VH: B2 VH with H99N, L100Y, A103T
VL: B2 VL with L91T, Y92A, S93F, T94S
notes: as for B3
As to B7, the dissociation rate constant (koff) with HER2-ECD-His protein [3] turned out to be 3.45e-05 s⁻¹.

B8: clone 1A12 (IgG) (antibody, V domains shown)
VH: B2 VH with A103T
VL: B2 VL with L91N, Y92A, S93Y, T94A
notes: as the VH of m4 (hz1E11); CDR-H3 HLGGTASFDY; as the VL of m4 (hz1E11); numbers count on: Kabat; IgG; also called L-1A12; source: Freestyle 293 system, purified (protein-A)
In the case of B8, in the experiment with HER2-ECD-His protein [4], the Kd came to 1.9 nM, the off-rate constant (koff) amounted to 0.00012 s⁻¹ and the kon amounted to 64000 M⁻¹ s⁻¹. For the same molecule, the koff with HER2-ECD-His protein [3] worked out at 2.8e-05 s⁻¹.

B9: L-1A12 + H-1B12 (IgG) (antibody, V domains shown)
VH: B2 VH with H99N, L100Y, A103T
VL: B2 VL with L91N, Y92A, S93Y, T94A
notes: as the VH of m4 (hz1E11); numbers count on: Kabat; as the VL of m4 (hz1E11); IgG; also called combination of the VH of 1B12 and VL of 1A12; source: Freestyle 293 system, purified (protein-A)
Take B9: the koff in the experiment with HER2-ECD-His protein [3] came to 1.87e-05 s⁻¹.
